Assay results reported in US20040138106A1.

Molecular target: Gly4→Compound A mutant myoglobin (myoglobin containing β-O-GlcNAc-L-serine at position 4, C-terminal His6 tag) (UniProt P02185)
Assay: ELISA-like assay: 200 ng myoglobin immobilized, biotinylated BSII, streptavidin-alkaline phosphatase, p-nitrophenyl phosphate, A405

Gly4→Compound A mutant myoglobin (myoglobin containing β-O-GlcNAc-L-serine at position 4, C-terminal His6 tag), sequence (P02185 other isoform, or with tags, fused parts or gaps mutant): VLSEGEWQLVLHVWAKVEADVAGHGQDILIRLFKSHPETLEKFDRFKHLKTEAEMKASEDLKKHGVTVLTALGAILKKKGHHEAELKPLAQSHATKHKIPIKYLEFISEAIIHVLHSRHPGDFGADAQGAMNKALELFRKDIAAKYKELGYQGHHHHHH

- fold signal (A405) against wild-type myoglobin: > 200 fold
Substance: GlcNAc-specific lectin, Bandeiraea simplicifolia II (BSII), biotinylated
